# Assay results published in paper PMC6588604.
# Biological target: NLuc-GhBOP1 (Gossypium hirsutum)
substance,measurement,value
CLuc-GhTGA3 (natural protein),GUS staining intensity from GhPR1pro:GUS in tobacco leaves: 35S:GhTGA3 + 35S:GhBOP1 + reporter against 35S:GhTGA3 + reporter,2 fold
